Data published in patent publication US8642729B2, “Opiorphin peptide derivatives as potent inhibitors of enkephalin-degrading ectopeptidases” (Institut Pasteur, priority 2008, dated 2014).
Non-standard residues stand in square brackets, D forms with d. No end group written: not given here. 12Ado = NCCCCCCCCCCCC(=O)O; Ahx = NCCCCCC(=O)O

Key:
[1] = molecular target: T1, recombinant human AP-N (Homo sapiens, UniProt P15144); assay: AP-N-ectopeptidase activity, Ala-Mca substrate; assay type: biochemical; conditions: for inhibitory potency towards hAP-N as compared to Opiorphin-QRFSR native peptide (in words): relative to native peptide
T1 construct: devoid of their respective N-terminal cytosol and transmembrane segment; purchased R&D Systems
Protocol: Formal kinetic analysis was performed for each assay using real-time fluorescence monitoring of specific substrate hydrolysis.
Recombinant human NEP and recombinant human AP-N (devoid of their respective N-terminal cytosol and transmembrane segment) that were purchased from R&D Systems, were used as pure source of peptidase.
FRET is the distance-dependant transfer of energy from a donor fluorophore (Abz=ortho-aminobenzoyl or Mca=7-methoxycoumarin-4-yl-acetyl) to an acceptor fluorophore (DnpOH=2,4-dinitrophenyl or EDDnp=2,4-dinitrophenyl ethylenediamine). • L-alanine-Mca, Ala-Mca, a fluorogenic substrate for measuring aminopeptidase activity was purchased from Sigma.
(§1) According to conditions of initial velocity measurement: the time, pH and temperature of incubation as well as enzyme and substrate concentrations were defined for each assay. Hydrolysis of substrates was measured by real-time monitoring their metabolism rate by the two peptidases in the presence and absence of tested inhibitory compound (concentrations ranging from 1 to 50 μM). These were added to the preincubation medium. The background rate of substrate autolysis representing the fluorescent signal obtained in the absence of enzyme was subtracted to calculate the initial velocities in RFU (Relative Fluorescent Unit)/min.
Measurement of AP-N-Ectopeptidase Activity Using Ala-Mca Substrate.
Using black half-area 96 well microplate the standard reaction consisted of enzyme (4 ng) in 100 mM Tris-HCl pH 7.0 (100 μl final volume).
(§2) Compounds were tested in triplicate at 50 μM final concentration.

[2] = molecular target: T2, human NEP (Homo sapiens, UniProt P08473); assay: Screening of Opiorphin peptide-derivatives on hNEP (endopeptidase and carboxydipeptidase activities); assay type: biochemical; conditions: for inhibitory preference / dual inhibition, human NEP versus human AP-N (in words): hNEP endopeptidase and carboxydipeptidase activities versus hAP-N; for inhibitory potency towards human NEP (in words): screening, 50 μM final concentration; for inhibitory potency towards hNEP as compared to Opiorphin-QRFSR native peptide (in words): relative to native peptide
T2 construct: devoid of their respective N-terminal cytosol and transmembrane segment; purchased R&D Systems
Protocol: as §1
([…] successive measures) by using a fluorimeter microplate reader (monochromator Infinite 200-Tecan) at 320 nm and 420 nm excitation and emission wavelengths, respectively.
Using black half-area 96 well microplate, the standard reaction consisted of enzyme (2.5 ng) in 100 mM Tris-HCl pH 6.5 containing 50 mM NaCl (100 μl final volume). The substrate (4 μM final concentration) was added after preincubation for 10 min and the kinetics of appearance of the fluorescent signal (RFU) was directly analyzed for 40 min at 28° C. (2.3 min-interval successive measures) by using the fluorimeter reader at 320 nm excitation and 420 nm emission wavelengths.
In addition, the intramolecularly quenched fluorogenic peptide, Mca-BK2 (10 μM), was submitted to hydrolysis by 5 ng rhNEP under the same experimental conditions as those described behind.
as §2

[3] = molecular target: T3, membrane-bound human NEP expressed by LNCaP epithelial cells (Homo sapiens, UniProt P08473); assay: Substance P cleavage by membrane-bound hNEP (human cell membranes); assay type: biochemical; conditions: fold increase, same test
T3 construct: endogenous in cells; host or cells: LNCaP epithelial cells (membranes)

[4] = molecular target: T4, Recombinant human AP-N (aminopeptidase N, EC 3.4.11.2), devoid of its N-terminal cytosol and transmembrane … (human, UniProt P15144 33-967); assay: cell-based or functional assay
[5] = molecular target: T4, Recombinant human AP-N (aminopeptidase …); assay: cell-based or functional assay; remark: listed apart in the source
[6] = molecular target: Recombinant human NEP (neutral endopeptidase, EC 3.4.24.11), devoid of its N-terminal cytosol and … (human, UniProt P08473 52-750); assay: cell-based or functional assay
Chain of Recombinant human NEP (neutral endopeptidase, EC 3.4.24.11), devoid of its N-terminal cytosol and … (P08473 52-750): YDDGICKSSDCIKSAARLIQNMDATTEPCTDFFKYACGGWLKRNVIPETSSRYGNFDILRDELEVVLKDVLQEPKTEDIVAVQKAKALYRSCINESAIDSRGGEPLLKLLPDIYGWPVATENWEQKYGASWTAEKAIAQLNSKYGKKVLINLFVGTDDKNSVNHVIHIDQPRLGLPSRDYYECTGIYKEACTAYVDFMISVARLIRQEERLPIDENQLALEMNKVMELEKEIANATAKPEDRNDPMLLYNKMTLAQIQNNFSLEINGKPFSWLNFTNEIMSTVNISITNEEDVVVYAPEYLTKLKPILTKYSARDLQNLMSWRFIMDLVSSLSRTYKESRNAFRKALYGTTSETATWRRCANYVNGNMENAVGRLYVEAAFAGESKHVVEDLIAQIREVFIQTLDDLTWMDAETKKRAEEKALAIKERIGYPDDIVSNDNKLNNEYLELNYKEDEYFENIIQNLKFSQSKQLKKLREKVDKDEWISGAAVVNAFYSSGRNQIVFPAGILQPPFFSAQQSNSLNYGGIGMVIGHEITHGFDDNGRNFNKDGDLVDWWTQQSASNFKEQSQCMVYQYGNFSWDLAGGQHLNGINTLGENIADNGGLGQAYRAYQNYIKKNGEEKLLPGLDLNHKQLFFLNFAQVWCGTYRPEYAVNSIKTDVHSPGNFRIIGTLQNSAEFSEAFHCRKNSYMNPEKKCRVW

T2 sequence (P08473 52-750 limits assumed): as the sequence (P08473 52-750) above
T1 sequence (P15144 33-967 limits assumed): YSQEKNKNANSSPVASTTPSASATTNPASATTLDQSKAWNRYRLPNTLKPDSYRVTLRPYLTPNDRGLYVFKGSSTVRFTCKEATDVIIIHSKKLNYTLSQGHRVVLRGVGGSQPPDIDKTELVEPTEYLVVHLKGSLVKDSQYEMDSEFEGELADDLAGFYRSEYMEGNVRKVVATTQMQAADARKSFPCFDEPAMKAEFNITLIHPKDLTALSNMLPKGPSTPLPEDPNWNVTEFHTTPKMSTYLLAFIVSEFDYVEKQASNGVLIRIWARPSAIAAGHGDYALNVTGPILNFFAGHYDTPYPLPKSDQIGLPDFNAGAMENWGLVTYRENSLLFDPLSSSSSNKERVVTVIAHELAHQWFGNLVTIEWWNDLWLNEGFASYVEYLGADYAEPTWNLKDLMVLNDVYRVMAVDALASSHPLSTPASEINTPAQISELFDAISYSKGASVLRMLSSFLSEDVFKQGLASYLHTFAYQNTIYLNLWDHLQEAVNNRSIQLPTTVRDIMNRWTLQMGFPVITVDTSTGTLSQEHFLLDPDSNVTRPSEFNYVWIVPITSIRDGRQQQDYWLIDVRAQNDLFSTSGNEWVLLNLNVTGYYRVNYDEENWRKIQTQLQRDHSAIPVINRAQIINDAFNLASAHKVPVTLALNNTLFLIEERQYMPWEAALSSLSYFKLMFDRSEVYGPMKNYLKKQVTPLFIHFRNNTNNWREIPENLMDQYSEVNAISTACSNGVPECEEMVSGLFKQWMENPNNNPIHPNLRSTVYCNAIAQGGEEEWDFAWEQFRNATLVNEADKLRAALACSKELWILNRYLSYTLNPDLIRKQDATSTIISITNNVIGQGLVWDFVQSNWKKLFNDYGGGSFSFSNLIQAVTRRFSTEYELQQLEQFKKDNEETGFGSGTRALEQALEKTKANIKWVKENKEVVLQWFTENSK
T4 sequence (P15144 33-967): as the sequence (P15144 33-967 limits assumed) above
T3 sequence (P08473 whole entry): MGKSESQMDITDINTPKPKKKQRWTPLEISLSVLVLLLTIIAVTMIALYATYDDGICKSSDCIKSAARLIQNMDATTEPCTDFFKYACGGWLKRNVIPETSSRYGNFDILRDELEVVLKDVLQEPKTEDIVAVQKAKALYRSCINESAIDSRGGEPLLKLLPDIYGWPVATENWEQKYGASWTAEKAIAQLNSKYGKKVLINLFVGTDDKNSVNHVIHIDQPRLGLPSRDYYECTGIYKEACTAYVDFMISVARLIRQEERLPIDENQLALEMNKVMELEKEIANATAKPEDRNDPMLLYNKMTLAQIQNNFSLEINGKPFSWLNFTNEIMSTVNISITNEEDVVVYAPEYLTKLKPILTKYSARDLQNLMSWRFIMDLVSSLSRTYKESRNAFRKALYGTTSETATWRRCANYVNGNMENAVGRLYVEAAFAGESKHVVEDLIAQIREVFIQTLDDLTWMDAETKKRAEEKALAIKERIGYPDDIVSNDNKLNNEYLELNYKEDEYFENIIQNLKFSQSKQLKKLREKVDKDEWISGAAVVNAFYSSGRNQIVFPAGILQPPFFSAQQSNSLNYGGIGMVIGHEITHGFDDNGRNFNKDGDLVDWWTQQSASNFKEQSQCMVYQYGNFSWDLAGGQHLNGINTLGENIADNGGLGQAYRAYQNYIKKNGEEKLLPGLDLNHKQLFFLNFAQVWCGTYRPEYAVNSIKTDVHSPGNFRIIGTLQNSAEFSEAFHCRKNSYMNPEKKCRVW

Molecule: dR-dS-dF-dR-dQ ([dR][dS][dF][dR][dQ]) [NH2-dRdSdFdRdQ-COOH]
- inhibitory potency towards human AP-N (in words) ([1]; screening, 50 μM final concentration): did not display significant inhibitory activity
- inhibitory preference / dual inhibition, human NEP versus human AP-N (in words) [2]: preference for AP-N activity
- inhibitory potency towards human NEP (in words) [2]: did not display significant inhibitory activity

Molecule: CCCCCCCC(=O)OC[C@H](NC(=O)[C@H](Cc1ccccc1)NC(=O)[C@H](CCCNC(=N)N)NC(=O)[C@H](CCC(N)=O)NC(=O)CCCCCCNC(=O)[C@@H](N)CS)C(=O)N[C@@H](CCCNC(=N)N)C(=O)O [C-[PE6]-QRFS[O-C8]R, C—(—HN—(CH2)6—CO—)-QRF—S(O-octanoyl)-R]
- increase inhibitory potency compared to Opiorphin native peptide, Substance P test [3]: at least 5 fold

Molecule: QKFSR
- inhibitory potency towards hNEP as compared to Opiorphin-QRFSR native peptide (in words) [2]: light reduction in inhibitory potency

Molecule: N=C(N)NCCC[C@H](NC(=O)[C@H](CO)NC(=O)[C@H](Cc1ccccc1)NC(=O)[C@H](CCCNC(=N)N)NC(=O)[C@H](CCC(N)=O)NC(=O)CCCCCCCCCCCCNC(=O)[C@@H](N)Cc1ccc(O)cc1)C(=O)O [Y-[PE12]QRFSR, Y—(—HN—(CH2)12—CO—)-QRFSR]
- inhibitory preference / dual inhibition, human NEP versus human AP-N (in words) ([2]; listed as NH2-Y(PE12)QRFSR—COOH): potent dual inhibitors
- inhibitory preference / dual inhibition, human NEP versus human AP-N (in words) ([2]; listed as NH2-Y—(C12-polyethylene)QRFSR—COOH): inhibitory preference for human NEP endopeptidase activity
- inhibitory preference / dual inhibition, human NEP versus human AP-N (in words) ([2]; listed as Y—(C12-polyethylene)QRFSR): inhibitory preference for human NEP endopeptidase activity

Molecule: N=C(N)NCCC[C@H](NC(=O)[C@H](CO)NC(=O)[C@H](Cc1ccccc1)NC(=O)[C@H](CCCNC(=N)N)NC(=O)[C@H](CCC(N)=O)NC(=O)[C@@H](N)CS)C(=O)O [CQRFSR]
- reinforced inhibitory potency towards hNEP compared to QRFSR native peptide ([2]; fold increase): 5 fold
- inhibitory preference / dual inhibition, human NEP versus human AP-N (in words) [2]: potent dual inhibitors

Molecule: QRFSK (H-QRFSK-OH)
- inhibitory potency towards hNEP as compared to Opiorphin-QRFSR native peptide (in words) [2]: equivalent inhibitory potency

Molecule: N=C(N)NCCC[C@H](NC(=O)[C@H](CO)NC(=O)[C@H](Cc1ccccc1)NC(=O)[C@H](CCCNC(=N)N)NC(=O)[C@H](CCC(N)=O)NC(=O)[C@@H](N)CSSC[C@H](N)C(=O)N[C@@H](CCC(N)=O)C(=O)N[C@@H](CCCNC(=N)N)C(=O)N[C@@H](Cc1ccccc1)C(=O)N[C@@H](CO)C(=O)N[C@@H](CCCNC(=N)N)C(=O)O)C(=O)O [[CQRFSR]2]
- increase inhibitory potency towards hNEP-Endo and CarboxyDi-peptidase activities compared to CQRFSR monomer peptide ([2]; fold increase): at least 2 fold

Molecule: QRGPR (H-QRGPR-OH)
- inhibitory potency towards hAP-N as compared to Opiorphin-QRFSR native peptide (in words) [1]: equivalent inhibitory potency
- inhibitory preference / dual inhibition, human NEP versus human AP-N (in words) [2]: inhibitory preference for human AP-N
- inhibitory potency towards hNEP as compared to Opiorphin-QRFSR native peptide (in words) [2]: weak inhibitory potency
- inhibitory potency towards human NEP (in words) [2]: weak inhibitory potency

Molecule: QRFPR
- inhibitory potency towards hAP-N as compared to Opiorphin-QRFSR native peptide (in words) [1]: equivalent inhibitory potency
- inhibitory preference / dual inhibition, human NEP versus human AP-N (in words) [2]: inhibitory preference for human AP-N
- inhibitory potency towards hNEP as compared to Opiorphin-QRFSR native peptide (in words) [2]: weak inhibitory potency
- inhibitory potency towards human NEP (in words) [2]: weak inhibitory potency

Molecule: QHNPR
- inhibitory potency towards hAP-N as compared to Opiorphin-QRFSR native peptide (in words) [1]: equivalent inhibitory potency
- inhibitory preference / dual inhibition, human NEP versus human AP-N (in words) [2]: inhibitory preference for human AP-N
- inhibitory potency towards hNEP as compared to Opiorphin-QRFSR native peptide (in words) [2]: weak inhibitory potency
- inhibitory potency towards human NEP (in words) [2]: weak inhibitory potency

Molecule: H-QRFSK-OH [NH2-QRFSK-COOH]
- fold decrease in inhibitory potency compared to Opiorphin-QRFSR native peptide [4]: 10 fold

Molecule: H-C[Ahx]QRFSR-OH [NH2-C-(C6-polyethylene)QRFSR-COOH]
- IC50, µM towards hAP-N (Ala-AMC cleavage) [5]: 0.8 µM
- IC50, µM towards hNEP-Endopeptidase (Abz-dR-G-L-EDDnp cleavage) [6]: 40 µM

Molecule: H-QKFSR-OH [NH2-QKFSR-COOH]
- fold decrease in inhibitory potency compared to Opiorphin-QRFSR native peptide [4]: > 10 fold

Molecule: H-C[12Ado]QRFSR-OH [NH2-C-(C12-polyethylene)QRFSR-COOH]
- IC50, µM towards hAP-N (Ala-AMC cleavage) [5]: 0.8 µM
